Patent US20230212319A1, “NOVEL ANTIGEN BINDING DOMAINS AND SYNTHETIC ANTIGEN RECEPTORS INCORPORATING THE SAME” (University of Southern California, priority 2020, published 2023)

B1: 21882 (protein)
chain: MALPVTALLLPLALLLHAARPDIQMTQSPSSLSASVGDRVTITCKASQDVGTAVDWYQQKPGKAPKLLISWASTRHTGVPSRFSGSGSGTDFTLTISSLQPEDFATYFCQQYNSYPLTFGQGTKVEIKRTVLEDLKNVFPPEVAVFEPSEAEISHTQKATLVCLATGFYPDHVELSWWVNGKEVHSGVCTDPQPLKEQPALNDSRYCLSSRLRVSATFWQNPRNHFRCQVQFYGLSENDEWTQDRAKPVTQIVSAEAWGRADCGFTSESYQQGVLSATILYEILLGKATLYAVLVSALVLMAMVKRKDSRGRAKRSGSGATNFSLLKQAGDVEENPGPTSMDWIWRILFLVGAATGAHSFEVQLVESGGGLVQPGGSLRLSCAASGFTFTDYTIHWVRQAPGKGLEWVANINPNNGGTTYNQKFEDRFTISRDNSKNTLYLQMNSLRAEDTAVYYCARGWNFDYWGQGTLVTVSSTRIQNPDPAVYQLRDSKSSDKSVCLFTDFDSQTNVSQSKDSDVYITDKCVLDMRSMDFKSNSAVAWSNKSDFACANAFNNSIIPEDTFFPSPESSCDVKLVEKSFETDTNLNFQNLSVIGFRILLLKVAGFNLLMTLRLWSSRAKRSGSGVKQTLNFDLLKLAGDVESNPGPSRGHMTEYKPTVRLATRDDVPRAVRTLAAAFADYPATRHTVDPDRHIERVTELQELFLTRVGLDIGKVWVADDGAAVAVWTTPESVEAGAVFAEIGPRMAELSGSRLAAQQQMEGLLAPHRPKEPAWFLATVGVSPDHQGKGLGSAVVLPGVEAAERAGVPAFLETSAPRNLPFYERLGFTVTADVEVPEGPRTWCMTRKPGA
B2: 22166 (protein)
chain: MALPVTALLLPLALLLHAARPEVQLQESGGGLVQPGGSLRLSCAASGRTFSSLFMGWFRQAPGKERELVAAISRYSLYTYYADSVKGRFTISADNAKNAVYLQMNSLKPEDTAVYYCASKLEYTSNDYDSWGQGTQVTVSSGTGGGGSGGGGSGGGGSEFDIQMTQSPSSLSASVGDRVTITCKASDHINNWLAWYQQKPGQAPKLLIYGATTLETGVPSRFSGSGSGTDYTLTISSLQPEDFATYYCQQSWNTPWTFGQGTKLEIKRLEIQNPDPAVYQLRDSKSSDKSVCLFTDFDSQTNVSQSKDSDVYITDKCVLDMRSMDFKSNSAVAWSNKSDFACANAFNNSIIPEDTFFPSSDVPCDVKLVEKSFETDTNLNFQNLSVIGFRILLLKVAGFNLLMTLRLWSSRAKRSGSGVKQTLNFDLLKLAGDVESNPGPTSATMDWIWRILFLVGAATGAHSGPQVQLQESGGGLAQAGGSLRLSCAASGRTFSMGWFRQAPGKEREFVAAITYSGGSPYYASSVRGRFTISRDNAKNTVYLQMNSLKPEDTAVYYCAANPTYGSDWNAENWGQGTQVTVSSGSGGGGSGGGGSGGGGSFEQVQLQQPGAELVKPGASVKMSCKASGYAFSSYWINWMKQKPGQGLEWIGQIYPGDGDTNYNGKFKGRATLTADTSSSTAYMQLSSLTSEDSAVYFCARSITTVVGCAMDYWGQGTSVTVSSTREDLKNVFPPEVAVFEPSKAEIAHTQKATLVCLATGFYPDHVELSWWVNGKEVHSGVCTDPQPLKEQPALNDSRYCLSSRLRVSATFWQNPRNHFRCQVQFYGLSENDEWTQDRAKPVTQIVSAEAWGRADCGITSASYHQGVLSATILYEILLGKATLYAVLVSALVLMAMVKRKDSRGRAKRSGSGATNFSLLKQAGDVEENPGPSRGHMTEYKPTVRLATRDDVPRAVRTLAAAFADYPATRHTVDPDRHIERVTELQELFLTRVGLDIGKVWVADDGAAVAVWTTPESVEAGAVFAEIGPRMAELSGSRLAAQQQMEGLLAPHRPKEPAWFLATVGVSPDHQGKGLGSAVVLPGVEAAERAGVPAFLETSAPRNLPFYERLGFTVTADVEVPEGPRTWCMTRKPGA
B3: 22177 (protein)
chain: MALPVTALLLPLALLLHAARPLFNQEVQIPLTESYCGPCPKNWICYKNNCYQFFDESKNWYESQASCMSQNASLLKVYSKEDQDLLKLVKSYHWMGLVHIPTNGSWQWEDGSILSPNLLTIIEMQKGDCALYASSFKGYIENCSTPNTYICMQRTVGGGGSGGGGSGGGGSDLFNQEVQIPLTESYCGPCPKNWICYKNNCYQFFDESKNWYESQASCMSQNASLLKVYSKEDQDLLKLVKSYHWMGLVHIPTNGSWQWEDGSILSPNLLTIIEMQKGDCALYASSFKGYIENCSTPNTYICMQRTVGTGGGGSGGGGSGGGGSEFDIQMTQSPSSLSASVGDRVTITCKASDHINNWLAWYQQKPGQAPKLLIYGATTLETGVPSRFSGSGSGTDYTLTISSLQPEDFATYYCQQSWNTPWTFGQGTKLEIKRLEDLKNVFPPEVAVFEPSKAEIAHTQKATLVCLATGFYPDHVELSWWVNGKEVHSGVCTDPQPLKEQPALNDSRYCLSSRLRVSATFWQNPRNHFRCQVQFYGLSENDEWTQDRAKPVTQIVSAEAWGRADCGITSASYHQGVLSATILYEILLGKATLYAVLVSALVLMAMVKRKDSRGRAKRSGSGATNFSLLKQAGDVEENPGPTSATMDWIWRILFLVGAATGAHSGPQVQLQESGGGLAQAGGSLRLSCAASGRTFSMGWFRQAPGKEREFVAAITYSGGSPYYASSVRGRFTISRDNAKNTVYLQMNSLKPEDTAVYYCAANPTYGSDWNAENWGQGTQVTVSSGSGGGGSGGGGSGGGGSFEQVQLQQPGAELVKPGASVKMSCKASGYAFSSYWINWMKQKPGQGLEWIGQIYPGDGDTNYNGKFKGRATLTADTSSSTAYMQLSSLTSEDSAVYFCARSITTVVGCAMDYWGQGTSVTVSSTRIQNPDPAVYQLRDSKSSDKSVCLFTDFDSQTNVSQSKDSDVYITDKCVLDMRSMDFKSNSAVAWSNKSDFACANAFNNSIIPEDTFFPSSDVPCDVKLVEKSFETDTNLNFQNLSVIGFRILLLKVAGFNLLMTLRLWSSRAKRSGSGVKQTLNFDLLKLAGDVESNPGPSRGHMTEYKPTVRLATRDDVPRAVRTLAAAFADYPATRHTVDPDRHIERVTELQELFLTRVGLDIGKVWVADDGAAVAVWTTPESVEAGAVFAEIGPRMAELSGSRLAAQQQMEGLLAPHRPKEPAWFLATVGVSPDHQGKGLGSAVVLPGVEAAERAGVPAFLETSAPRNLPFYERLGFTVTADVEVPEGPRTWCMTRKPGA

Assays:
KMH2 (PSMA-low) cells = assay: JNG NFAT-GFP induction on co-culture with KMH2
Huh-7 cells = assay: JNG NFAT-GFP induction on co-culture with Huh-7
RAJI cells = assay: JNG assay, co-culture with RAJI cells; format: cell-based; conditions: JNG cells expressing construct, co-culture with Raji
In short: (§1)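 Read-out is NFAT-driven GFP measured by flow cytometry after ~4–18 h co-culture of SAR-expressing JNG cells with target cells (E:T about 1:2). SARs were introduced by lentiviral spinfection and selected with puromycin or blasticidin when possible; scores (+/- to 5+ ≈ 5–50% GFP+) are relative to parental JNG cells.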

RAJI-CD19-KO cells = assay: JNG assay, co-culture with RAJI-CD19-KO cells; format: cell-based; conditions: co-culture with Raji-CD19-KO
In short: as §1

SKOV-3 cells = assay: JNG assay, co-culture with SKOV-3 cells; format: cell-based; conditions: co-culture with SKOV-3
Protocol: Cellular supernatant is collected and assayed for the induction of cytokines (e.g., IL2).
JNG (Jurkat cells expressing EGFP under an NFAT promoter) were infected with lentiviral vectors encoding different single chain and multi-chain SARs by spinfection in the presence of 8 µg/ml of Polybrene® (Sigma, Catalog no. H9268). The Jurkat-NFAT-GFP cells are engineered in such a way that the IL-2 promoter, which carries NFAT binding sites, is cloned upstream of the GFP gene. These cells have been used to study signaling via TCR and CAR. The different SARs were stably expressed in Jurkat NFAT-GFP cells by lentiviral mediated gene transfer, followed by selection with puromycin or blasticidin. No drug selection was used in case the construct lacked an antibiotic resistance gene. The SAR-expressing Jurkat-NFAT-GFP cells were cocultured with the target cells at E:T ratio of approximately 1:2 for approximately 4 hours to 18 hours. When the interaction between SIRs and their target antigen results in activation of the NFAT pathway, GFP expression is induced. […] GFP expression was monitored by FACS analysis. The Jurkat-NFAT-GFP (parental) cells were used as control. The structure of different constructs can be determined based on their names. […] The sequence of the other constructs in the table can be similarly determined from their names and by referring to the different Tables of this disclosure that provide the names and SEQ ID NO of the different modules. Alternatively, the composition and modular architecture of the different SAR constructs can be determined from their sequences by bioinformatics tools, including using nucleic acid and amino acids homology searches. A SAR is considered positive in the assay in case the SAR expressing Jurkat-NFAT-GFP cells show greater % GFP positive cells when cultured with the target cell line as compared to parental Jurkat-NFAT-GFP cells. […] In general, the number +/-, +, 2+, 3+, 4+, 5+ refer to approximately 5%, 10%, 20%, 30%, 40% and 50% GFP positive cells. The % of GFP induction in the above assay is dependent not only the relative strength of the SAR but also, among other factors, on the relative level of expression of the SAR in the JNG cells and the relative level of expression of the target antigen in the target cell line. To control for the difference in gene transduction efficiency of the different SAR constructs, the experiment was conducted with JNG cells transduced with SAR constructs co-expressing a drug resistance gene (e.g., puromycin or PAC) followed by drug selection to generate a stable population of SAR-expressing cells. It is to be noted that the drug resistance gene (e.g., PAC) in the SAR constructs is optional and in vivo studies were conducted with SAR constructs lacking the PAC gene.

Nalm6 cells = assay: JNG assay, co-culture with Nalm6 cells; format: cell-based; conditions: co-culture with Nalm6
In short: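 SAR-JNG (lentiviral spinfection, drug-selected) + target cells, E:T ≈1:2, ≈4–18 h; FACS for GFP; positivity = %GFP+ over parental JNG; grades +/- to 5+ ≈ 5–50% GFP+.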

L363 cells = assay: JNG assay, co-culture with L363 cells; format: cell-based; conditions: co-culture with L363
In short: as §1

Row | Molecule | NFAT-GFP ASSAY: KMH2 (KMH2 (PSMA-low) cells) | NFAT-GFP ASSAY: Huh-7 (Huh-7 cells) | NFAT-GFP ASSAY: Raji (RAJI cells) | NFAT-GFP ASSAY: Raji-CD19-KO (RAJI-CD19-KO cells) | NFAT-GFP ASSAY: SKOV-3 (SKOV-3 cells) | NFAT-GFP ASSAY: Nalm6 (Nalm6 cells) | NFAT-GFP ASSAY: L363 (L363 cells)
1 | B1 | negligible GFP induction | negligible GFP induction | – | – | – | – | –
2 | B2 | – | – | 2+ (refer to approximately 5%, 10%, 20%, 30%, 40% and 50% GFP positive cells) | 2+ (refer to approximately 5%, 10%, 20%, 30%, 40% and 50% GFP positive cells) | 2+ (refer to approximately 5%, 10%, 20%, 30%, 40% and 50% GFP positive cells) | 3+ (refer to approximately 5%, 10%, 20%, 30%, 40% and 50% GFP positive cells) | –
3 | B3 | – | – | – | 2+ (refer to approximately 5%, 10%, 20%, 30%, 40% and 50% GFP positive cells) | 2+ (refer to approximately 5%, 10%, 20%, 30%, 40% and 50% GFP positive cells) | 3+ (refer to approximately 5%, 10%, 20%, 30%, 40% and 50% GFP positive cells) | + (refer to approximately 5%, 10%, 20%, 30%, 40% and 50% GFP positive cells)
